Assay results published in the DeepSol protein solubility set.

Test: soluble on expression in E. coli; label from the status in PepcDB or PDB records

Sequence | soluble on expression in E. coli
MLNSFKLSLQYILPKLWLTRLAGWGASKRAGWLTKLVIDLFVKYYKVDMKEAQKPDTASYRTFNEFFVRPLRDEVRPIDTDPNVLVMPADGVISQLGKIEEDKILQAKGHNYSLEALLAGNYLMADLFRNGTFVTTYLSPRDYHRVHMPCNGILREMIYVPGDLFSVNHLTAQNVPNLFARNERVICLFDTEFGPMAQILVGATIVGSIETVWAGTITPPREGIIKRWTWPAGENDGSVALLKGQEMGRFKLGSTVINLFAPGKVNLVEQLESLSVTKIGQPLAVSTETFVTPDAEPAPLPAEEIEAEHDASPLVDDKKDQVMGHHHHHHSH | not soluble
KLLEHVRNILPPNITCLYIRQAEALGLGHAVLCARAAIGDEPFAVILADDLIDAPKGALKQMVEVYGRSGNSILGVETVEASQTGSYGIVETEQLKQFQRITGIVEKPKPEDAPSNLAVVGRYILTPRIFDLLTNLPRGAGNEIQLTDGIAKLLDHEFVLAHPFEGTRYDCGSKLGYLEATVAYGLKHPETGEPFRRLLEKYRTE | not soluble
MNGCKQSASKVFKLVGGFNKASSRCFSSEKLIPKDLKIVKNPTSEQIKQFQKLVGDFNDIKLLKETMKDNYQLYLLCHKDSTVLSGTQSITYKSLNRSIPDFQTFGLSYQPDNTYNLLPHLMHEMATDFKSVKMNSGGCVDSKYAAVWRKVLHTKVRGPTYYVSHYKPDEVFNPELEFDDVVVKKFSDVPVEHVVKYDNSIFPYERKEYILAKFKNGVGRVAYNKSGEVIGIGLVSTESSGNCEIGPIYCDNKNAAQAIFQSIIQDLPMKDLKDVLVRCSDKFEDSATWIRPFLRRSHEMTPFAHIKFNRVIPDGLNFSKVFVSSNPSNAPC | not soluble
MSLQNGKIKGLIFDCYKTLIDIRTDEGSWETNEKVSKWLLYQGVRIEPDRLREEYKWKVIGRLGNSGQKYPDIRIEEIFAEICAENAFREINPFWLGIEAAKVFRTSSLKKLEAYPQSLRLLDKYRNVPKCIVSNAQRVFTEQELHFLGLYDRFNFIIMSSDHRIKKPDTRLFKMALDGLKLEPWEVLSIGDTPENDIYAPQSLGINAMHIRDAWRCVEGHHHHHH | soluble
MQKIDLGNNESLVCGVFPNQDGTFTAMTYTKSKTFKTETGARRWLEKHTVS | soluble
MSLGTRAPSFTPERSVEISGGEDGYFQARGTISGPLGETLAGRLSAYRTRDDGYVKNLHDGNTLNGGARQGFRGQLLFKPNDDFSLRWIGDYNEEDSDNGVLTLFSSGPTVNGVNRYEQRAAAAGATLVDGHRRKVNFDSDQQVTVFQGGTSVEANWKLANDFTLTSISAYRWWDFTPRNDDGLDVPAAYNAGVSVRDKQWSQEIRLASPSGGFFDYVLGAYYFGQDLDNKSFTDYGPRADIWNGTPAGALSDVSTRGRGHIDTDSYALFAQGTWHLTERLDLTAGVRGTYEEKSAWVEREGHHHHHH | soluble
MGSDKIHHHHHHMVMYLENPGKLDRKFFTESILRYTGYRRPEDKVPPKNGVDTGIISIGNGKVMAVTTDPFYFDPVFGYEDSAWFAYHILASDITTAGVYPEYMTVDLNLPISISNEEIARMWKTVHEEAYKYKTSIITGHTARYANTGFPMVGGATMFGFTDDDKYVTTAMARPGDIMIMTKTAGIEAASLLTRIFPNHVKKNLGEDKYRYGFELFRKLSTVDEAIQAIEFGTRKAITSMHDATEGGLLGAVYEVAEASGNGVSIDKEAIHVDDYVKEIHSLFGIDPLRSISEGTLLMTIDPEYADEFMKRLTKSGIDSYVIGKMTTKDEGIKFKDGSEPIGEPEKDPFWYAVEKSMKMGLS | not soluble
GEQPSIQLTFADQNNSEMSVVHLNQLLKTNHISADKIIEKDGKTTIVFDGEDAQSKARALLNKELNKDDSITFSYVSVAPEWLNEMGFSPIKLGLDLRGGVQFLLNVDVNKAFEEQRDALIDEINASRDQRVRGVQVRAESGNRITVNSDSEQALSEVNKFLRQNYPGWISKSSSRGFVLEPSEQNIQEFQSSTLQQNLKIMRGRIEELGITEALVQRQGKESIRIELPGVQDPAQAKNVIGATASLAFYEVKDASQAHSSQDLVLQDNDGRTVILAKRPVLTGEHIVNARAGVDKMGMSEVNISLDHAGGKKMSDFSATHIGKPMATVYREYKTNDRGVTERSERVISVATIQSQLGSQFRITGAGSMDDAQQLALLLRAGSLTAPVTIVEERTIGASLGAENIEN | not soluble
MAHHHHHHMGTLEAQTQGPGSMTAQSGLLQGKRGLILGVANNRSIAWGIAKAAREAGAELAFTYQGDALKKRVEPLAEELGAFVAGHCDVADAASIDAVFETLEKKWGKLDFLVHAIGFSDKDELTGRYIDTSEANFTNTMLISVYSLTAVSRRAEKLMADGGSILTLTYYGAEKVMPNYNVMGVAKAALEASVKYLAVDLGPQNIRVNAISAGPIKTLAASGIGDFRYILKWNEYNAPLRRTVTIDEVGDVGLYFLSDLSRSVTGEVHHADSGYHVIGMKAVDAPDISVVKD | soluble
FPSKARMFEGLIEFIEESLMSRINRIFDEEKDTLNRIRLVMQLLLAFAERNPGLTRILSGHALMFENERLRDRINQLFERIETSLRQILRERKLREGKSFPVDENILAAQLLGQVEGSLNRFVRSDFKYLPTANFDEYWALLSAQIK | not soluble
MNSNRTPSQKVLARQEKIKAVALELFLTKGYQETSLSDIIKLSGGSYSNIYDGFKSKEGLFFEILDDICKKHFHLIYSKTQEIKNGTLKEILTSFGLAFIEIFNQPEAVAFGKIIYSQVYDKDRHLANWIENNQQNFSYNILMGFFKQQNNSYMKKNAEKLAVLFCTMLKEPYHHLNVLINAPLKNKKEQKEHVEFVVNVFLNGINSSKA | soluble
GPGSMLPHSQPLVLPMEPSNWAVMPPTGVEMPMEPGTFEDISTAGWIGPRRRSFCGPQTEEEWEDLMIHRSSLRRESGQGTGVGLSGSGCLLGTDDPDRDVLCEYYGDMANRDEKVLSCGLRGQEGRRVLGNKPLRQRPNGPMRERTNYGSLASRRQRVMEEGGVWGDVEVCCVPVEPWHPMDMVCLGEERPEDVCVLRQTDTELYGTGRAFATDGKP | not soluble
MSLKAEFLTPVVTIFDEEGNLDKEGNKKVYDHLIDGGVDGLVIMGSTGEFFNMSMDMQKELIDLVTSHVNKRVKVFIGTSRMCINESIELSNYAHNSGADGVMIISPYYFSLDDDSIELFYSEIAKNTEAEIYLYNYPDRTGYDLSPELTLRLARKHKNIVGYKDTVTLMGHTRDLINTMKIEFPEFKVYSGYDENFIHNLMSGGAGCIGGLSNLIPEVCSKWAEAYNNRDMEKVIEIQKYINKAMDFYLITNPFIPAMKKAMNIRGLQISDYMTAPFVKPNEKQVCEIKKLMNELNIEGHHHHHH | soluble
MKIFFITSNPGKVREVANFLGTFGIEIVQLKHEYPEIQAEKLEDVVDFGISWLKGKVPQPFMIEDSGLFIESLKGFPGVYSSYVYRTIGLEGILKLMEGAEDRRAYFKSVIGFYIDGKAYKFSGVTWGRISNEKRGTHGFGYDPIFIPEGSEKTFAEMTIEEKNALSHRGKALKAFFEWLKVNLKY | soluble
GAMEKFKTLLYDIPIECMEVSEEIISYAKLQLGKKLNDSIYVSLTDHINFAIQRNQKGLDIKNALLWETKRLYKDEFAIGKEALVMVKNKTGVSLPEDEAGFIALHIVNAELNEEMPNIINITKVMEEILSIVKYHFKIEFNEESLHYYRFVTDLKFFAQRLFNGTHMESEDDFLLDTVKEKYHRAYECTKKIQTYIEREYEHKLTSDELLYLTIDIERVVKQA | soluble
MGSDKIHHHHHHVRLWIPHVTRPTVQPASSYATYSVMPGATVKELADLIGVSTTAVRDHLVHLQAEGMVEVTSERSGPGRPRLVYSLSEKAQKSFPKQYDRLISTLLRELIELEGEGKVEQLLDRVSQRLASEYADRMAGSDVAARLNELRALLEQRGVPAEIDPEGDVLRLFACPYYDVAADYPEVCSMERRMIEYVLGEKLVLEDTIRAGAHNCRFVLRPQDIPLTMTPPAADPTTEV | not soluble
MHRTTRIKITELNPHLMCVLCGGYFIDATTIIECLHSFCKTCIVRYLETSKYCPICDVQVHKTRPLLNIRSDKTLQDIVYKLVPGLFKNEMKRRRDFYAAHPSADAAN | soluble
MSVVAQVSGEEVTRLLAPIDPAVPAGLFDVEDETYQAIDQEMVKLGGLQEASIDWVYIEDASRQYLSQQCKHLRIVAHLSAAWLRSGCWEQWGCTLALLAGMLECYWEAAHPKPGPKGFLGKRKLVALVIDRLAEALPRLDRFTYTPTHAAAAQAALKRLQQQETVQLDTAALGELERLLGKYSELANGVGEAAVPKAPAATEKPAPLADVIATPVSRMSMGNERETRRAVLSMAELINQQDPYDATGYQLRRFGLWAHIQVAPQVRQGNRTELMAVPLDITRFYEEAIASKAVDPALLQRIEKSLTACPFWIRGSFLAATVATQLAMCEVAEAIRCATARFVQRMPSLQQLCFSDGMVFVDDQCLAWLKGTQGPSGQGATPQEFSGLREELVSQLETGGIEPLLLRLQGLQAGVRAPRERCHTTVIAADLLAARGVSWLAQDLCANVARTMQQTTASAWEPEVFERLQQYAASPVLAVQDKDQEPR | not soluble
MAHHHHHHMEMGGDIVGNIMMLELETFSDEEAAYLTSPDAPHSHIVDEVVEALFENVCTAPRRCSWNTPSVRPEWKEEFRFAGEWWLSMRVLPATVNPNEYHPPLIPFLLRNVQTENQFIADLALHMRQRSSVLSLLHMDHISITPDRASVLLFEGILRNEAQNLECLSLSFCEVGAATLLLILCGLNQCRSIQPQLRYLNLSYNWIDASCSNMMAMLLERTSIRRLSLHGNRFGGSDITSFYDFLLQGCSLLEELDLSYTALTCAEVCALISCLPRMRNLEVLLLDGVEVPDNKAAALSTAIRKSNLIHVSLKGIIACNGEAYLHRIHKACQRNRAARDFLKDRSTLRYFSEGGSFFEAFARRTCEMQRLDDRALPVTYRPFVTNDPSLLPAKNL | not soluble
GMEFNHLTKQLNQLLAQDYVAFSITENPVVQMLSQASFAQIAYVMQQYSIFPKELVGFTELARRKALGAGWNGVAQELQENIDEEMGSTTGGISHYTLLADGLEEGLGVAVKNTMPSVATSKLLRTVLSLFDRQVDYVLGATYAIEATSIPELTLIVKLVEWLHEGAIPKDLQYFFSKHLDEWEIEHEAGLRTSVAAYIQPEEFGEFAAGFRAMIDAMQVWWQELAQEAISSEVVLSTAIAQHH | soluble
SNAMKFELPKLPYAVDALESTISKETIEYHYGKHHQTYVTNLNNLVEGTEHDGRNLEEIVKTSNGGIFNNAAQVFNHTFYWNCLTPNKTEASSQLKAALIETFGSVENFKEQFSKAAIATFGSGWAWLVKNTEGKLEIVTTSNAGCPLTENKKPLLTFDVWEHAYYIDYRNARPKYVEALWDIVNWQFVSEQFAD | soluble
MKSITQLENKKVLVLGLAKSGEAAARLLAKLGAIVTVNDGKAFEENPSAQSLLEEGIKVVCGGHPLELLDENFELMVKNPGIRYDNPMVARALEKEIPVWTEVELAYLVSEAPIIGITGSNGKTTTTTMIADVLNHGGKSGVLSGNIGFPASEVAQSVTNQDTLVMELSSFQLMGIESFHPHIAVITNLMPTHIDYHGSFEEYVAAKWNIQNEMTSDDFIILNFNQDLAKELATQTNAQVVPFSTVEKVDGAYLENGGLYFKGELLMHADELGVPGSHNVENALATIAVAKLSGVSNQAIKETLSSFGGVKHRLQFVDTIDDVKFYNDSKSTNILATQKALSGFDNSKVILIAGGLDRGNEFDELIPDITGLKKMVILGESAPRVKRAADKAGVTYLDAKDVADATRIAFEQASAGDVVLLSPANASWDMYKNFEVRGDEFITTVERLKG | not soluble
